Laboratory results taken from PMC12711917.

Target: 5-TAMRA-labeled human CaV1.2-IQ peptide (human)
Sequence (Q13936 1659-1692): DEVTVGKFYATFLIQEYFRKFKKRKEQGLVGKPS

calmodulin, wild type (from UniProt P0DP23 1-149) (natural protein)
f300 (calcium-dependent inactivation of the CaV1.2 channel; whole-cell voltage clamp of HEK293 cells co-transfected with human CaV1.2 α1C, β2a, α2δ and calmodulin): 0.57
